Measurements reported in patent US20100081795A1 (Bayer, published 2010).

Target: T1, purified, native RG1 protein produced in transfected BHK cells (human, UniProt Q9BUD6 27-331)
T1 construct: also called BHK-RG1; nRG1
T1 chain: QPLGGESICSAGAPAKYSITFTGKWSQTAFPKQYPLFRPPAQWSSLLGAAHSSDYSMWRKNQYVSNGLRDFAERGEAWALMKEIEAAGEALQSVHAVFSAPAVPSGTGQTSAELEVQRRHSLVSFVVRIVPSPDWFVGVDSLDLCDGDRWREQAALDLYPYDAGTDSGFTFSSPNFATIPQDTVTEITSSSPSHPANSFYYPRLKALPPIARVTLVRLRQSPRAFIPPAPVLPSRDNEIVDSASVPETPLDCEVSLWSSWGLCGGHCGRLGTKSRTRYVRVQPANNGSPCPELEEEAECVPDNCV
Experiment: BIAcore SPR; mab captured on anti-human IgG Fc, soluble BHK-RG1 12.5-400 nM; 1:1 Langmuir fit
Experimental: Kinetic constants (KD, kₐ and kd) of mab binding to native RG1 protein were determined by BIAcore using a capture format in which soluble, native RG1 protein was bound to immobilized mab on a sensor chip. ImmunoPure rabbit anti-human IgGFc (Pierce, 31142) was covalently immobilized to the Sensor Chip CM5 (Biacore, BR-1000-12) using standard amine coupling methods. 100 ug/ml antibody diluted in 10 mm acetate, pH 4.0 was used at 5 ul/min. HBS-EP (Biacore, BR-1001-88) was used as mobile phase. Unreacted sites were blocked with ethanolamine. Mabs were diluted to 200 nM with HBS and 50 μl was injected per cycle at 10 ul/min. Serial dilutions of BHK-RG1 (12.5-400 nM) were bound to the immobilized mab. Dissociation kinetics were measured immediately after the antigen injection was completed at 20 μl/min for 8 minutes. The surface was regenerated following each cycle using 25 ul of 10 mm glycine, pH 1.8 and then washed with HBS.
Typically, five concentrations and a media control were run. Data were fit to a 1:1 Langmuir model using the software provided by the instrument manufacturer (BIAevaluation 3.0), and kinetic constants were calculated. Equilibrium constants were in the nanomolar range with favorable dissociation rates (10⁻⁴ s⁻¹).

B1: human RG1 monoclonal antibody B (antibody, V domains shown)
VH: EVQLVQSGGGLVHPGGSLRLSCAGSGFTFSSYVMHWLRQAPGKGLEWVSVIGTGGVTHYADSVKGRFTISRDNAKNSLYLQMNSLRAEDMAMYYCARWGYYGSGSYENDAFDIWGQGTMVTVSS
VL: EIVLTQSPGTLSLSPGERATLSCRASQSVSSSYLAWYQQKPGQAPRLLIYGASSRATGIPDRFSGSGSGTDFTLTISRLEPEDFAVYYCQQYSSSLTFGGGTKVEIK
notes: Hybridoma-derived human antibody with a kappa light chain; also called Mab B
- Kd: 8.4 nM
- koff: 0.00023 s⁻¹
- kon: 29000 M⁻¹ s⁻¹
